Patent publication US6593108B1 (priority 1999, dated 2003)
“And” between values parts separate entries of the source, which are not always exact repeats. Equal values may be shown once. Where a SMILES comes first, the peptide text is derived from it. Bridges are numbered along the chain shown (N, C = ends). Where no end group is shown, it is not given here.

Columns and labels:
HG67 = target: T1, HG67 (Homo sapiens, UniProt Q969V1); assay: Intracellular calcium ([Ca2+]i) measurement with fura-2 in HEK293T cells transiently expressing HG67; format: cell-based; settings: HEK293T cells transiently expressing HG67, fura-2; read-out: EC50 of increase in intracellular calcium levels
T1 construct: expressed in transfected cells; host or cells: HEK-293T, transient
T1 sequence (Q969V1 whole entry): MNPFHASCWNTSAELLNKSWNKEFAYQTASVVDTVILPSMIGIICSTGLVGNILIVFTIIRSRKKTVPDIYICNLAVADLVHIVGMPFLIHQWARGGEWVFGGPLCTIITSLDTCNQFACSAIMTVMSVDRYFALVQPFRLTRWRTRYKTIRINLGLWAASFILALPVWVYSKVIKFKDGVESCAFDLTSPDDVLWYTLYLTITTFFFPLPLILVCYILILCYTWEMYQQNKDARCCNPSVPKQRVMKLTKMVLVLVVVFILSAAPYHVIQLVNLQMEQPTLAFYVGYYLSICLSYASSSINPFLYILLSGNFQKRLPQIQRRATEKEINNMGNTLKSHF
From the text: (§1) The entire coding sequence of human HG67 was cloned into BamHI -NotI site of pEF1/V5-HisB plasmid vector (Invitrogen, Carlsbad, Calif.). The resultant construct was transfected into HEK-293T cells using Effectene (Qiagen, Hilden, Germany) or LipofectAmine PLUS (Life Technologies) according to the manufacture's instructions. Human embryonic kidney cells constitutively expressing SV40 large T antigen (HEK-293T) were maintained in D-MEM/F-12 medium (Life Technologies, Rockville, Md.) supplemented with 10% fetal bovine serum, 100 units/ml penicillin-G and 100 μg/ml streptomycin at 37° C. with 5% CO2 in a humidified atmosphere.
(§2) The intracellular calcium ion concentration ([Ca^2+]i) was measured fluorometrically using a Ca^2+-sensitive fluorescent dye, fura-2. HEK293T cells transiently transfected with pEF1/V5-HisB plasmid vector harboring HG67 cDNA were harvested by phosphate-buffered saline containing 2 mM EDTA 48 hours after transfection, and washed once with the assay buffer (Hanks' balanced salt solution, 10 mM HEPES, 0.1% BSA, pH 7.4). The cells were suspended with the buffer containing 2 μM fura-2 acetoxymethylester (Dojin, Kumamoto, Japan) into the cell density of 1.0×10^7 cells/ml and incubated at 37° C. for 60 minutes with gently shaking. The fura-2-loaded cells were washed twice with the buffer and re-suspended with the buffer to 1.0×10^6 cells/ml. […]

non-transfected cells = assay: Intracellular calcium ([Ca2+]i) measurement with fura-2 in non-transfected cells; format: cell-based, human; settings: data not shown
From the text: as §1, §2

MCH-R1 [1] = target: T2, MCH-R1 (Homo sapiens, UniProt Q99705); assay: SPA, displacement of [125I]Phe13Tyr19-MCH from MCH-R1 membranes
[2] = target: HG67 (melanin-concentrating hormone receptor 2) (human) (UniProt Q969V1); assay: cell-based or functional assay
Sequence of HG67 (melanin-concentrating hormone receptor 2) (human) (Q969V1 whole entry): as above

MCH-R1 [3] = target: T2, MCH-R1; assay: cell-based or functional assay
[4] = target: HG67 (melanin-concentrating hormone receptor 2) (human) (UniProt Q969V1); assay: SPA, displacement of [125I]Phe13Tyr19-MCH from MCH-R2 membranes
[5] = target: HG67 (melanin-concentrating hormone receptor 2) (human) (UniProt Q969V1); assay: SPA, COS or CHO MCH-R2 membranes, nonspecific defined with 500 nM unlabeled MCH
MCH-R1 [6] = target: T2, MCH-R1; assay: SPA, CHO/MCH-R1 membranes, nonspecific defined with 500 nM unlabeled MCH
mock transfected cells = assay: [125I]-MCH binding to mock transfected HEK293T cells; parameters: species or system human
MCH-R1 [7] = target: T2, MCH-R1; settings: Lembo, et al., 1999; cited from earlier work
MCH-R1 [8] = target: T2, MCH-R1; assay: Pertussis toxin effect on MCH-R1 signaling; format: cell-based; settings: dose dependent
From the text: MCH-R2 appears to activate Gαq. […] Intracellular calcium mobilization through MCH-R2 was not affected by different concentrations of pertussis toxin (PTX), while MCH-R1 signaling was reduced in a dose dependent manner to about 50%. The results of incomplete PTX-inhibition of MCH-R1 signaling is in contrast to Lembo, et al., 1999. […] (Tadayyon, et al., 2000. 275(2), 709-712).

[9] = target: T3, HG67 (melanin-concentrating hormone receptor 2) (human, UniProt Q969V1 1-340); assay: cell-based or functional assay
T3 sequence (Q969V1 whole entry): as above

[10] = target: T3, HG67 (melanin-concentrating hormone …); assay: cell-based or functional assay; remark: listed apart in the source
[11] = target: T3, HG67 (melanin-concentrating hormone …); assay: SPA, displacement of [125I]Phe13Tyr19-MCH from MCH-R2 membranes
Protocol: (§3) SPA was carried out using wheat-germ agglutinin-polyvinyltoluene beads (Amersham Corp., Arlington Heights, Ill.), in 96-well OptiPlates (Packard, Meriden, Conn.). Each well contained 0.25 mg of SPA beads, 1–10 μg of membrane protein, and 200 μl of binding buffer.
(§4) After equilibrating at room temperature for 3 hours, the plates were read in a TopCount (Packard, Meriden, Conn.). IC$50$ calculations were performed using Prism 3.0 (GraphPad Software, San Diego, Calif.).

MCH-R1 [12] = target: T4, MCH-R1 (Homo sapiens (Human), UniProt Q99705 1-353); assay: SPA, displacement of [125I]Phe13Tyr19-MCH from MCH-R1 membranes
T4 construct: also called MCH-1R; CHO/MCH-R1
T4 sequence (Q99705 whole entry, form in doubt): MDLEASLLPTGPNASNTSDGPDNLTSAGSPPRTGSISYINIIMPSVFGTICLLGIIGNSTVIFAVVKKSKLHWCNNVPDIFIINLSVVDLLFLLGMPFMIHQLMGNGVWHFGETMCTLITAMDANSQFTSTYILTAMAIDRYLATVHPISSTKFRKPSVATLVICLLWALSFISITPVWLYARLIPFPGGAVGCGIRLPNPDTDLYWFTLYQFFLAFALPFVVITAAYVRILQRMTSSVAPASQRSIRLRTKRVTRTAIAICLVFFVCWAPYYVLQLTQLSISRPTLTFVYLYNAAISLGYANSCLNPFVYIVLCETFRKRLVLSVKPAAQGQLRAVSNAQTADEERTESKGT
Protocol: as §3, §4

MCH-R1 [13] = target: T4, MCH-R1; assay: cell-based or functional assay

CSCC[C@@H]1NC(=O)[C@@H](NC(=O)[C@H](CCCNC(=N)N)NC(=O)[C@H](CC(C)C)NC(=O)[C@H](CCSC)NC(=O)[C@H](CC(=O)O)NC(=O)[C@H](Cc2ccccc2)NC(=O)[C@@H](N)CC(=O)O)CSSC[C@@H](C(=O)N[C@@H](Cc2c[nH]c3ccccc23)C(=O)N[C@@H](CCC(N)=O)C(=O)N[C@@H](CC(C)C)C(=O)O)NC(=O)[C@@H]2CCCN2C(=O)[C@H](CCCNC(=N)N)NC(=O)[C@H](Cc2ccccc2)NC(=O)[C@H](C(C)C)NC(=O)[C@H](CCCNC(=N)N)NC(=O)CNC(=O)[C@H](CC(C)C)NC1=O [[Phe^13, Leu^19]-MCH] (H-DFDMLRCMLGRVFRPCWQL-OH; disulfide 7-16 (inferred); N-terminus and C-terminus assumed)
EC50 (HG67): 0.078 nM | [Ca2+]i increase in the non-transfected cells (non-transfected cells): failed to induce detectable [Ca^2+]i increase

Melanin-concentrating hormone [MCH]
[Ca2+]i increase in the non-transfected cells (non-transfected cells): failed to induce detectable [Ca^2+]i increase

Salmon MCH (peptide)
IC50 (MCH-R1 [1]): 0.2 nM | Function (EC50) [2]: 90.5 nM | Function (EC50) (MCH-R1 [3]): 119 nM | IC50 [4]: 437 nM

[125I]Phe^13Tyr^19-MCH (from UniProt P20382 147-165) (peptide)
specific binding window [5]: 3 x | specific binding window (MCH-R1 [6]): 6 x

[Phe^13, Leu^19]-MCH (from UniProt P20382 147-165) (peptide)
increase in intracellular calcium levels (fura-2), EC50 [2]: 0.078 nM

[^125I]-MCH: radioiodinated MCH, NEN Life Science Products
Specific binding to mock transfected cells (mock transfected cells; in words): any specific binding was not observed | Nonspecific binding (1 μM MCH) (mock transfected cells; mock transfected HEK293T cells, [125I]-MCH 100 pM plus 1 μM cold MCH, two values per cell): 352.2 Cpm and 326.6 Cpm | Total binding (DMSO) (mock transfected cells; mock transfected HEK293T cells, [125I]-MCH 100 pM, two values per cell): 516.4 Cpm and 392.5 Cpm

pertussis toxin
PTX inhibition of MCH-1R signaling (MCH-R1 [7]): complete PTX inhibition | MCH-R1 signaling remaining after PTX (reduced to) (MCH-R1 [8]): about 50%

B1: human melanin-concentrating hormone (MCH) (peptide, UniProt P20382 147-165, looked up)
peptide: DFDMLRCMLGRVYRPCWQV
modifications: ends and bridges not checked; cysteine pairing not given here
notes: mature; Both are treated as one molecule; the mature 19-mer is its C-terminal part; also called Human MCH; cold MCH
IP turnover, EC50 [9]: 2.8 nM | aequorin assay in HEK293/aeq17/Galpha15 cells, EC50 [9]: 26 nM | increase in intracellular calcium levels (fura-2), EC50 [9]: 0.02 nM | Function (EC50) [10]: 44.1 nM | IC50 [11]: 1.5 nM

B2: (Phe^13Tyr^19)-MCH (peptide)
chain: DFDMLRCMLGRVFRPCWQY
IC50 (MCH-R1 [12]): 0.3 nM | Function (EC50) [10]: 65.5 nM | Function (EC50) (MCH-R1 [13]): 83.1 nM | IC50 [11]: 0.8 nM
